Consider 1 protein from paper PMC11554683, “GNG5 is a novel regulator of Aβ42 production in Alzheimer’s disease” (Cell Death & Disease, 2024).

The data set concerns the molecule itself. As to the kind of experiment: western blot (band sizes); recombinant GNG5 (purity >95%) used to assess anti-GNG5 antibodies (Fig. S3B).

B1: recombinant GNG5 (G protein subunit gamma 5) (natural protein, UniProt P63218 1-68, looked up)
chain: MSGSSSVAAMKKVVQQLRLEAGLNRVKVSQAAADLKQFCLQNAQHDPLLTGVSSSTNPFRPQKVCSFL
notes: G protein subunit gamma 5 (GNG5); Purity >95% is stated; also called purified GNG5; homotrimer-GNG5; source: E. coli BL21 (DE3), purified (HisTrap HP, PD-10)
As to B1, the “stoichiometry N” value turned out to be 3.
